# ± gives the uncertainty stated by the source.
# Experiment: self-splicing fitness, log relative to wild type (ln ratio); higher = more splicing; Tetrahymena group I intron in knt gene, E. coli kanamycin selection, DiMSum; sequences stand for … in CUCUCU…GGAGGGAAAAGUUAUCAGGCAUGCACCUGGUAGCUAGUCUUUAAACCAAUAGAUUGCAUCGGUUUAAAAGGCAAGACCGUCAAAUUGCGGGAAAGGGGUCAACAGCCGUUCAGUACCAAGUCUCAGGGGAAACUUUGAGAUGGCCUUGCAAAGGGUAUGGUAAUAAGCUGACGGACAUGGUCCUAACCACGCAGCCAAGUCCUAAGUCAACAGAUCUUCUGUUGAUAUGGAUGCAGUUCACAGACUAAAUGUCGGUCGGGGAAGAUGUAUUCUUCUCAUAAGAUAUAGUCGGACCUCUCCUUAAUGGGAGCUAGCGGAUGAAGUGAUGCAACACUGGAGCCGCUGGGAACUAAUUUGUAUGCGAAAGUAUAUUGAUUAGUUUUGGAGUACUCGUGGUCG
# Summary of the method: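 Library with all eight P1ex-region intron nucleotides randomised, intron inside the knt kanamycin-resistance gene on pET-22b(+), in E. coli BL21(DE3). Cells grew overnight at 37°C or 30°C on LB agar with or without 25 μg/mL kanamycin (plus 100 μg/mL carbenicillin, 50 μM IPTG, 0.2% rhamnose), in six replicate transformations. Pooled colonies were amplicon-sequenced on Illumina HiSeq 2500. DiMSum fitness is the error-weighted combination of wild-type-normalised replicate fold changes, kanamycin versus none.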
Sequence,self-splicing fitness (ln) (30 °C),self-splicing fitness (ln) (37 °C)
AUAAAGCAAUAUUACGUAGU,-1.9 ± 0.12,-0.946 ± 0.17
UAGAAGCAAUAUUACGCGUU,-2.89 ± 0.15,-1.41 ± 0.13
UACAAGCAAUAUUACGCUUA,-2.33 ± 0.11,-1.18 ± 0.08
GCGGAGCAAUAUUACGUAUG,-3.28 ± 0.31,-2.58 ± 0.41
GACUAGCAAUAUUACGAGCG,-1.57 ± 0.1,-0.592 ± 0.12
GGGUAGCAAUAUUACGAACG,-0.91 ± 0.08,-0.292 ± 0.1
AGGAAGCAAUAUUACGCUCC,-1.87 ± 0.31,
UUAUAGCAAUAUUACGAAAA,-1.95 ± 0.39,-1.31 ± 0.28
GAAGAGCAAUAUUACGCCAG,,-0.627 ± 0.38
UCCCAGCAAUAUUACGACCU,-2.88 ± 0.27,-1.69 ± 0.35
AUUAAGCAAUAUUACGUUCG,-0.91 ± 0.1,-0.85 ± 0.14
UACAAGCAAUAUUACGACGA,-0.323 ± 0.065,0.0319 ± 0.075
ACGAAGCAAUAUUACGCUGG,-1.07 ± 0.098,-0.428 ± 0.11
AUUCAGCAAUAUUACGGUUA,-0.544 ± 0.089,-0.305 ± 0.08
GCUAAGCAAUAUUACGACGG,-1.8 ± 0.11,-1.49 ± 0.14
GCGAAGCAAUAUUACGAUGG,-2.12 ± 0.13,-0.641 ± 0.14
GUUAAGCAAUAUUACGGUAU,-1.36 ± 0.11,-0.895 ± 0.12
AUUAAGCAAUAUUACGCUUG,-1.87 ± 0.11,-0.856 ± 0.14
AGUGAGCAAUAUUACGACCA,-1.79 ± 0.26,-1.52 ± 0.48
AAACAGCAAUAUUACGGAUG,-3.43 ± 0.16,-3 ± 0.2
ACUGAGCAAUAUUACGGAGC,-2.54 ± 0.23,-1.44 ± 0.28
UGGUAGCAAUAUUACGGGGU,-3.24 ± 0.43,
GAACAGCAAUAUUACGAGGU,-3.08 ± 0.14,-1.71 ± 0.12
UAUUAGCAAUAUUACGGCUG,-0.432 ± 0.079,0.0834 ± 0.13

Sequence,self-splicing fitness (ln) (30 °C),self-splicing fitness (ln) (37 °C)
GCACAGCAAUAUUACGCUAG,-1.9 ± 0.082,-1.18 ± 0.078
GCUGAGCAAUAUUACGACUA,-1.55 ± 0.22,-1.72 ± 0.21
UGUGAGCAAUAUUACGAGGG,-3.77 ± 0.3,-3.54 ± 0.42
AGCGAGCAAUAUUACGUAUA,-3.86 ± 0.37,-2.18 ± 0.29
UGGCAGCAAUAUUACGUGUC,-3.85 ± 0.19,-2.17 ± 0.19
CUCGAGCAAUAUUACGGUUC,-3.14 ± 0.22,-2.49 ± 0.3
UAUAAGCAAUAUUACGUUCG,-0.846 ± 0.12,0.0904 ± 0.17
GAUUAGCAAUAUUACGUACU,-0.632 ± 0.073,0.0191 ± 0.088
AUGAAGCAAUAUUACGGAAA,-2.48 ± 0.15,-0.666 ± 0.15
UAACAGCAAUAUUACGUUAU,-3.22 ± 0.16,-2.96 ± 0.23
CCCAAGCAAUAUUACGCGGU,-3.41 ± 0.12,-1.77 ± 0.12
AAUCAGCAAUAUUACGCGGU,-2.35 ± 0.12,-1.14 ± 0.14
UAGGAGCAAUAUUACGUCCU,-1.63 ± 0.18,-2.25 ± 0.26
UAUGAGCAAUAUUACGCCCA,-2.3 ± 0.27,0.171 ± 0.49
AGGAAGCAAUAUUACGUGAG,-0.821 ± 0.1,-1.57 ± 0.14
GGUAAGCAAUAUUACGGAUA,-3.17 ± 0.25,-1.69 ± 0.13
UCCUAGCAAUAUUACGAGAA,-1.36 ± 0.25,-0.965 ± 0.23
CCUAAGCAAUAUUACGGCCG,-0.351 ± 0.18,-0.367 ± 0.22
UACAAGCAAUAUUACGGAUA,-1.38 ± 0.086,-0.839 ± 0.092
GCAUAGCAAUAUUACGCAGU,-4.08 ± 0.17,-1.81 ± 0.12
UGGCAGCAAUAUUACGCGCG,-0.287 ± 0.064,0.0127 ± 0.089
UAGGAGCAAUAUUACGGAUC,-3.44 ± 0.41,-0.998 ± 0.39
UUCUAGCAAUAUUACGUAUA,-1.28 ± 0.19,-0.787 ± 0.25
UCGCAGCAAUAUUACGGCAG,-0.619 ± 0.1,-0.379 ± 0.11

Sequence,self-splicing fitness (ln) (30 °C),self-splicing fitness (ln) (37 °C)
AGCGAGCAAUAUUACGCGGA,-3.21 ± 0.21,-2.45 ± 0.19
GAGUAGCAAUAUUACGGGUU,-2.25 ± 0.14,-1.81 ± 0.2
UAUCAGCAAUAUUACGAUGC,-3.83 ± 0.37,-1.82 ± 0.22
UCCAAGCAAUAUUACGAAAA,-2.15 ± 0.18,-0.93 ± 0.12
GGAAAGCAAUAUUACGGGUA,-1.86 ± 0.17,-1.32 ± 0.15
UCGUAGCAAUAUUACGAGCA,-0.579 ± 0.3,-1.13 ± 0.24
GCAAAGCAAUAUUACGUAGU,-2.09 ± 0.11,-1.14 ± 0.15
UUCAAGCAAUAUUACGGACU,-2.76 ± 0.17,-0.504 ± 0.13
UAGAAGCAAUAUUACGUCUC,-1.21 ± 0.11,-0.794 ± 0.1
CCAGAGCAAUAUUACGGGCC,-2.83 ± 0.22,-2.55 ± 0.26
AUUAAGCAAUAUUACGAUGU,-0.608 ± 0.07,-0.0076 ± 0.084
GUUGAGCAAUAUUACGCAUA,-2.36 ± 0.24,-1.1 ± 0.17
CAUCAGCAAUAUUACGGCGU,-2.3 ± 0.14,-1.94 ± 0.17
GGGCAGCAAUAUUACGUAAA,-0.819 ± 0.09,-0.375 ± 0.11
AGUAAGCAAUAUUACGUUGA,-3.1 ± 0.23,-2.1 ± 0.24
AACAAGCAAUAUUACGUGUU,-4.01 ± 0.19,-2.05 ± 0.12
GAGAAGCAAUAUUACGGUGC,-2.81 ± 0.19,0.59 ± 0.21
AUAAAGCAAUAUUACGAAAA,-1.4 ± 0.091,-0.609 ± 0.11
ACUUAGCAAUAUUACGAUCU,-0.0945 ± 0.076,0.51 ± 0.1
UACCAGCAAUAUUACGUUCC,-2.79 ± 0.19,-1.77 ± 0.22
CAUAAGCAAUAUUACGGGGA,-2.02 ± 0.17,-2.83 ± 0.23
CCGCAGCAAUAUUACGGACG,-2.13 ± 0.1,-0.204 ± 0.11
AUUAAGCAAUAUUACGGAGC,-2.62 ± 0.34,-2.15 ± 0.31
CUGCAGCAAUAUUACGGAUU,-3.49 ± 0.18,-1.8 ± 0.16

Sequence,self-splicing fitness (ln) (30 °C),self-splicing fitness (ln) (37 °C)
GCCGAGCAAUAUUACGUCCU,-2.96 ± 0.14,-0.795 ± 0.13
GGCCAGCAAUAUUACGAGUC,-2.16 ± 0.14,-1.24 ± 0.14
GCACAGCAAUAUUACGGUGC,-3.09 ± 0.2,-2.61 ± 0.23
GUCCAGCAAUAUUACGGUUA,-0.0348 ± 0.05,0.165 ± 0.055
GCGUAGCAAUAUUACGCGUG,-4.06 ± 0.28,-2.71 ± 0.15
CACGAGCAAUAUUACGUCAG,-3.42 ± 0.13,-2.32 ± 0.11
GUGCAGCAAUAUUACGGGAC,-2.09 ± 0.19,-2.82 ± 0.48
GCAAAGCAAUAUUACGGUAU,-1.32 ± 0.072,-0.489 ± 0.096
ACUCAGCAAUAUUACGCGGG,-2.91 ± 0.15,-2.68 ± 0.18
AUUUAGCAAUAUUACGUGCG,-1.82 ± 0.091,-0.316 ± 0.12
CGUGAGCAAUAUUACGAGUU,-3.88 ± 0.47,-3.72 ± 0.36
ACCGAGCAAUAUUACGAUGU,-2.71 ± 0.12,-1.86 ± 0.12
GAGGAGCAAUAUUACGGAAU,-3.82 ± 0.37,
CCGCAGCAAUAUUACGACUA,-3.8 ± 0.34,-3.46 ± 0.29
UGAAAGCAAUAUUACGCACG,-1.4 ± 0.11,0.111 ± 0.13
UCCCAGCAAUAUUACGUUAU,-4.35 ± 0.18,-2.47 ± 0.17
GUAGAGCAAUAUUACGUCUA,-1.34 ± 0.11,-0.919 ± 0.13
CAAGAGCAAUAUUACGCGAC,-3.73 ± 0.23,-1.93 ± 0.13
ACUAAGCAAUAUUACGUAUG,-3.55 ± 0.16,-1.25 ± 0.14
CUGCAGCAAUAUUACGUCUU,-3.15 ± 0.11,-2.64 ± 0.12
AACAAGCAAUAUUACGUCCU,0.214 ± 0.064,0.0455 ± 0.074
ACAAAGCAAUAUUACGUAAG,-1.19 ± 0.056,-0.79 ± 0.069
CUUCAGCAAUAUUACGCGAC,-2.88 ± 0.31,-1.75 ± 0.41
GCAUAGCAAUAUUACGUUAU,-2.61 ± 0.16,-3.08 ± 0.27
